# Measured values: paper PMC10454150, “Molecular Mechanism of a FRET Biosensor for the Cardiac Ryanodine Receptor Pathologically Leaky State” (International Journal of Molecular Sciences, 2023)
# Ends that are not written are not given here. QXL520 = non-fluorescent dark acceptor (quencher) probe
# B1: acceptor-labeled DPc10 (A-DPc10), QXL520 at the N-terminus (peptide)
# peptide: QXL520-GFCPDHKAAMVLFLDRVYGIEVQDFLLHLLEVGFLP
# notes: also called acceptor-DPc10; source: synthetic peptide (AnaSpec)
# Legend:
# [1] = target: type 2 ryanodine receptor (RyR2) channel in cardiac SR membranes (pig (endogenous in porcine heart SR)); assay: FRET or BRET; as a1, 30 nM Ca2+, SR pre-treated with 50 uM unlabeled DPc10 for 60 min; apparent affinity
# [2] = target: type 2 ryanodine receptor (RyR2) channel in cardiac SR membranes (pig (endogenous in porcine heart SR)); assay: FRET or BRET; as a1 but 300 uM Ca2+, no DPc10
# [3] = target: T1, type 2 ryanodine receptor (RyR2) channel in cardiac SR membranes (pig (endogenous in porcine heart SR), UniProt A0A5G2R1W3 1-4900); assay: FRET or BRET; as a6 but 300 uM Ca2+, no CaM; Hill fit; conditions: one partner purified
# T1 construct: type 2 ryanodine receptor (RyR2), pig heart; homotetrameric assembly of 565-kDa protomers; 'intact RyR2 in cardiac SR vesicles'; In every assay RyR2 stood in native SR membranes and was preloaded with a donor-labelled FKBP12.6 (D-FKBP); also called cardiac ryanodine receptor; source: endogenous, SR vesicles isolated by differential ultracentrifugation of porcine ventricular tissue; residual …
# [4] = target: T1, type 2 ryanodine receptor (RyR2) …; assay: FRET or BRET; FRET from D-FKBP (labelled position not stated for this experiment) on RyR2 in cardiac SR to A-DPc10 (QXL520), series of [A-DPc10]; 30 nM Ca2+, no CaM; Hill fit; conditions: one partner purified
# [5] = target: T1, type 2 ryanodine receptor (RyR2) …; assay: FRET or BRET; as a6, 30 nM Ca2+, pre-incubated 40 min with unlabeled CaM (1 uM by the legend, 30 uM by the text); apparent affinity; Hill fit; conditions: one partner purified
# [6] = target: T1, type 2 ryanodine receptor (RyR2) …; assay: FRET or BRET; FRET from D-14-FKBP on RyR2 in cardiac SR to A-DPc10, series of [A-DPc10]; Ca2+ not stated for this experiment; Hill fit; conditions: one partner purified
# [7] = target: T1, type 2 ryanodine receptor (RyR2) …; assay: FRET or BRET; FRET from D-32-FKBP (loss-of-inhibition variant) on RyR2 in cardiac SR to A-DPc10, series of [A-DPc10]; Ca2+ not stated for this experiment; Hill fit; conditions: one partner purified
# [8] = target: T1, type 2 ryanodine receptor (RyR2) …; assay: FRET or BRET; as a6 but 300 uM Ca2+, pre-incubated 40 min with unlabeled CaM (1 uM by the legend, 30 uM by the text); apparent affinity; Hill fit; conditions: one partner purified
# [9] = target: T1, type 2 ryanodine receptor (RyR2) …; assay: FRET or BRET; FRET from D-49-FKBP on RyR2 in cardiac SR to A-DPc10, series of [A-DPc10]; Ca2+ not stated for this experiment; Hill fit; conditions: one partner purified
# [10] = target: T1, type 2 ryanodine receptor (RyR2) …; assay: FRET or BRET; FRET from D-85-FKBP on RyR2 in cardiac SR to A-DPc10, series of [A-DPc10]; Ca2+ not stated for this experiment; Hill fit; conditions: one partner purified
# [11] = target: T1, type 2 ryanodine receptor (RyR2) …; assay: FRET or BRET; FRET from D-FKBP (labelled position not stated for this experiment) on RyR2 in cardiac SR to A-DPc10 (QXL520), series of [A-DPc10]; 30 nM Ca2+, no CaM; Hill fit; conditions: one partner purified; remark: listed apart in the source
molecule,measurement,setting,value
"acceptor-labeled calmodulin (A-CaM), Alexa Fluor 555 at a cysteine substituted at position 34 (natural protein)",fold decrease of apparent affinity with 50 uM DPc10 against no DPc10,[1],4 fold
same,fold higher affinity in 300 uM Ca2+ against 30 nM Ca2+,[2],2.7 fold
B1,Kd,[3],13.2 µM
same,Kd,[4],10.4 µM
same,Kd,[5],14.6 µM
same,Kd,[6],10 µM
same,Kd,[7],13.1 µM
same,Kd,[8],33.9 µM
same,Kd,[9],9.9 µM
same,Kd,[10],10.4 µM
same,Kd,[11],10.3 µM
